# Data from patent publication US20180208663A1 (AGENCY FOR SCIENCE TECHNOLOGY AND RESEARCH, published 2018).
# Experiments:
# recombinant human γc = target: T1, recombinant human γc (human, UniProt P31785 23-262, limits assumed); test: ELISA, scFv titrated (nM) on γc (IL-2Rγc)
# T1 construct: also called common γ chain; IL-2Rγ
# T1 sequence (looked up): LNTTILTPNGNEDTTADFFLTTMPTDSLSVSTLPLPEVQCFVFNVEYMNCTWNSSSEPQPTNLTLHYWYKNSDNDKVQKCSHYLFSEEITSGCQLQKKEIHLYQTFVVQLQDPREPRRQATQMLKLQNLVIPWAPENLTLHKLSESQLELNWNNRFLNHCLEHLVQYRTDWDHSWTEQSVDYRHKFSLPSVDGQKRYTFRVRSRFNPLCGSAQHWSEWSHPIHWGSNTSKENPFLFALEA
# recombinant human IL-2Rβ = target: T2, recombinant human IL-2Rβ (human, UniProt P14784 27-240); test: ELISA, scFv titrated (nM) on IL-2Rβ
# T2 construct: also called CD122; interleukin 2 receptor β
# T2 sequence (looked up): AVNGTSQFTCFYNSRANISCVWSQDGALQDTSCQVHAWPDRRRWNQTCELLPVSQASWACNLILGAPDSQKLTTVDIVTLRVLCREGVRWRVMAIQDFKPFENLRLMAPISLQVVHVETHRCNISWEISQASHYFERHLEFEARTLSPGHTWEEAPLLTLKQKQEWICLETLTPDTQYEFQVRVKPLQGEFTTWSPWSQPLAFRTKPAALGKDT
Binder,EC50 (read off the curve) (recombinant human γc) [nM],EC50 (read off the curve) (recombinant human IL-2Rβ) [nM]
P1A3_FW2 single chain antibody (scFv) scFv: EVQLVESGGGLVQPGGSLRLSCAASGGSFSGYYWSWVRQAPGKGLEWVSEINHSGSTNYNPSLKSRFTISRDNSKNTLYLQMNSLRAEDTAVYYCARSPGGYSGGYFQHWGQGTLVTVSSGGGGSGGGGSGGGGSDIQMTQSPSSLSASVGDRVTITCRSSQSLLHSNGYNYLDWYQQKPGKAPKLLIYLGSNRDSGVPSRFSGSGSGTDFTLTISSLQPEDFATYYCMQGTHWPWTFGQGTKVEIK,~60,
P2C4_FW2 single chain antibody (scFv) scFv: EVQLVQSGAEVKKPGASVKVSCKASGYTFTNYYMHWVRQAPGQGLEWMGAIMPSRGGTSYPQKFQGRVTITADKSTSTAYMELSSLRSEDTAVYYCARGEYYYDSSGYYYWGQGTLVTVSSGGGGSGGGGSGGGGSQSVLTQPPSVSGAPGQRVTISCTGTSSDIGHYDFVSWYQQLPGTAPKLLIYDINNRPSGVPDRFSGSKSGTSASLAITGLQAEDEADYYCSAYTSSDTLVFGGGTKLTVL,,~1
